Here are results for four substances from patent publication US20050118170A1.

Assay [1] deals with DDR1b (discoidin domain receptor 1, isoform b), full-length human, overexpressed in THP-1 cells (human) (UniProt Q08345). The assay is described as follows: cell-based or functional assay.
The target in assay [2] is human collagen type I (human) (UniProt P02452). The assay is described as follows: adherence of cells to collagen-coated plates, 30 minutes at 37° C.; not inhibited by anti-β1 integrin blocking antibody.
Sequence of human collagen type I (human) (P02452 162-1218 limits assumed, chain 1 of 2): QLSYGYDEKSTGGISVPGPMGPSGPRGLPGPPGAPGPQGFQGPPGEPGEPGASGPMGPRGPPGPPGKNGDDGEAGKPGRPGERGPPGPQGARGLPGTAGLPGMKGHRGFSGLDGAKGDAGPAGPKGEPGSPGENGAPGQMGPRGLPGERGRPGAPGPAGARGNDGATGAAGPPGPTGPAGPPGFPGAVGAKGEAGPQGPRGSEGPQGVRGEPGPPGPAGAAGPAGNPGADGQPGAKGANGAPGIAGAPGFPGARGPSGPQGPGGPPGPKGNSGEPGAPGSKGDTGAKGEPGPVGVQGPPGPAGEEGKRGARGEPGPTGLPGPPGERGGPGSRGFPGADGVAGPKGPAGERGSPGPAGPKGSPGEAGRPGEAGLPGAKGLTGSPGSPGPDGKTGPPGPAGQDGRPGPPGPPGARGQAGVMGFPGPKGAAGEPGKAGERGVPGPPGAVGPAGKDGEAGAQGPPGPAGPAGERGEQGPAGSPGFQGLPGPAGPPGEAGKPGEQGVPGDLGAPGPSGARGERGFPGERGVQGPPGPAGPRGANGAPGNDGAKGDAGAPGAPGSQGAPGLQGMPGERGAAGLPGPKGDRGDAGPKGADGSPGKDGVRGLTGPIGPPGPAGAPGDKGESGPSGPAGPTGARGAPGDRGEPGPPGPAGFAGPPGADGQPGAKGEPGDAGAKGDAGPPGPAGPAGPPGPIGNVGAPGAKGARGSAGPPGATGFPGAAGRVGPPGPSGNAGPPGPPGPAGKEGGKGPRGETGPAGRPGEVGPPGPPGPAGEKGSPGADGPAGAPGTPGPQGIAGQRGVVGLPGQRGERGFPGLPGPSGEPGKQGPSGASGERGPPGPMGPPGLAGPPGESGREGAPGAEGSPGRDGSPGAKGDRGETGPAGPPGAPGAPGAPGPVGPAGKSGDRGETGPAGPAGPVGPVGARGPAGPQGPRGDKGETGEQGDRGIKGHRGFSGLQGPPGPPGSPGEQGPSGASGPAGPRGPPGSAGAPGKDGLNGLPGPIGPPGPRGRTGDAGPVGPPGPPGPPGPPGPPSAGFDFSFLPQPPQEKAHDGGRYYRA
Sequence of human collagen type I (human) (P08123 80-1119 limits assumed, chain 2 of 2, further chain): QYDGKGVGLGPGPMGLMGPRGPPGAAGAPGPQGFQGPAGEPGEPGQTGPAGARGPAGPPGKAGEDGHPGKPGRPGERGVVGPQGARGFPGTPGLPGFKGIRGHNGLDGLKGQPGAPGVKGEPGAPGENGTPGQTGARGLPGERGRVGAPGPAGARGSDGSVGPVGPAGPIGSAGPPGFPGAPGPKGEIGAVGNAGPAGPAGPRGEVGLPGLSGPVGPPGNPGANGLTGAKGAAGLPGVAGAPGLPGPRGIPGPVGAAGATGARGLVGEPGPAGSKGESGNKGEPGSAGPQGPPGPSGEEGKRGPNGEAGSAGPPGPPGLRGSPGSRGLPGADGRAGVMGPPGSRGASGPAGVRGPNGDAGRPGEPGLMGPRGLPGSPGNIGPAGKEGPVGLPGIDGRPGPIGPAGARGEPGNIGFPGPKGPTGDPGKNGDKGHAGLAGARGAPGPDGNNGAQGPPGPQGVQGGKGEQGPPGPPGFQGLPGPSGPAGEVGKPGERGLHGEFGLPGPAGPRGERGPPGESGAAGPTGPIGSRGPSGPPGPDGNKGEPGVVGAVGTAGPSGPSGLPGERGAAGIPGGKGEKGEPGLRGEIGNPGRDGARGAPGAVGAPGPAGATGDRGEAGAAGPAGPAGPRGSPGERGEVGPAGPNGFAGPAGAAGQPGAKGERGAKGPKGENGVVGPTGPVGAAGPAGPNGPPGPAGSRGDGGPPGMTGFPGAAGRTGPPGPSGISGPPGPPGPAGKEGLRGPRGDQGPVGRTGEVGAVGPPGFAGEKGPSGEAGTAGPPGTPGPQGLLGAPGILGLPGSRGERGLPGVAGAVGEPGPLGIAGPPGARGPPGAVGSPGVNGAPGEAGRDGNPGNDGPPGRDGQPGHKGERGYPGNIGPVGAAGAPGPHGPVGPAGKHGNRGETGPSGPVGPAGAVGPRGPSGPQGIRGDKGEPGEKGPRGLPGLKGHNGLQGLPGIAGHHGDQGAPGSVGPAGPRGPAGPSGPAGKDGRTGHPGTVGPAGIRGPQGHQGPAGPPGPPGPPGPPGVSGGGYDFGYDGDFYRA

Sequence of DDR1b (discoidin domain receptor 1, isoform b), full-length human, overexpressed in THP-1 cells (human) (Q08345 19-913, form in doubt): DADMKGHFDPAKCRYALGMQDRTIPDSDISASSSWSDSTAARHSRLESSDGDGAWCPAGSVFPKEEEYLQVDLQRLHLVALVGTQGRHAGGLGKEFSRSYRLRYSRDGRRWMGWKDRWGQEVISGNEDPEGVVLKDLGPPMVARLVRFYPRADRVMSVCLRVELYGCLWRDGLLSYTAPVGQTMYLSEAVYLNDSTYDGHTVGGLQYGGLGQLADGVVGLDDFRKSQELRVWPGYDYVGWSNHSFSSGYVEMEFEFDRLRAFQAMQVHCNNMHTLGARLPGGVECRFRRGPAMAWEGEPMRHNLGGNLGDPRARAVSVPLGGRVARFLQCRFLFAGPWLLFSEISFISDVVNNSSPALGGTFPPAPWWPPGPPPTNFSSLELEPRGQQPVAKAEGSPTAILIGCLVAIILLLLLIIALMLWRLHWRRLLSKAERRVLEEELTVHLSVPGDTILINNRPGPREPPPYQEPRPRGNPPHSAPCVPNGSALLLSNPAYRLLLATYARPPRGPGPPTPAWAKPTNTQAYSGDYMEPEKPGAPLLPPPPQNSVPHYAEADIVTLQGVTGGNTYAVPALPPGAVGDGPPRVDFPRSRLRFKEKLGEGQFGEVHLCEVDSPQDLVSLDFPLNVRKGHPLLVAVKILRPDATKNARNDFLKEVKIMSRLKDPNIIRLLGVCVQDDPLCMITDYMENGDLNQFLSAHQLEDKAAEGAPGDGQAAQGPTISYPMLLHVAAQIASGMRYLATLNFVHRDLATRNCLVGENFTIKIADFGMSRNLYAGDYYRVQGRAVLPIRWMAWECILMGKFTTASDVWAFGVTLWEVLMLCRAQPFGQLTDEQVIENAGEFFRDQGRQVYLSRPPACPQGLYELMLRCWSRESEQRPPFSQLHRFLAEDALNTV
Sequence of DDR1b (discoidin domain receptor 1, isoform b), full-length human, overexpressed in THP-1 cells (Q08345 19-913): as the sequence (Q08345 19-913, form in doubt) above

Take “bovine collagen type I (from UniProt P02453 162-1217; P02465 80-1117) (ligand)”: in assay [1], the CD11c-positive cells at 24 hours on collagen-coated plates is 53%; the CD14-positive cells at 24 hours on collagen-coated plates came to 35%; the CD40-positive cells at 24 hours on collagen-coated plates was determined as 19%; the HLA-DR-positive cells, 12 hours on collagen-coated plates was 10%. Also, in assay [1], the HLA-DR-positive cells, 24 hour incubation on collagen-coated plates stood at 25%; the HLA-DR-positive cells, 48 hour incubation on collagen-coated plates was found to be 70%; the MCP-1 release into culture supernatant (ELISA) was found to be 7 fold.
In assay [1], “bovine collagen type I (from UniProt P02453 162-1217; P02465 80-1117)” came in with a decrease in cell proliferation of PMA-treated THP-1 cells on collagen-coated plates of 50%.
As to “DDR1a (discoidin domain receptor 1, isoform a), full-length human, overexpressed in THP-1 cells (from UniProt Q08345 19-913)”, the percent of total cells adherent (% of total cells) in assay [2] worked out at 62.
The same measure, in the same setting: for “DDR1b (discoidin domain receptor 1, isoform b), full-length human, overexpressed in THP-1 cells (from UniProt Q08345 19-913)” the value was 62.
